Test results taken from CN116724055A (CANTARGIA S R L, dated 2023).
Where a chain is given by its changes, count along the chain named. Each block holds one binder with its values, some of them ahead of it.

Experiments:
[1] = target: T1, 重组mfIL1RAP aa21-367 (食蟹猴 (Macaca fascicularis), UniProt A0A2K5X5J5 21-367); assay: binding ELISA, coated mfIL1RAP aa21-367
T1 construct: also called 食蟹猴(cyno)IL1RAP
T1 sequence: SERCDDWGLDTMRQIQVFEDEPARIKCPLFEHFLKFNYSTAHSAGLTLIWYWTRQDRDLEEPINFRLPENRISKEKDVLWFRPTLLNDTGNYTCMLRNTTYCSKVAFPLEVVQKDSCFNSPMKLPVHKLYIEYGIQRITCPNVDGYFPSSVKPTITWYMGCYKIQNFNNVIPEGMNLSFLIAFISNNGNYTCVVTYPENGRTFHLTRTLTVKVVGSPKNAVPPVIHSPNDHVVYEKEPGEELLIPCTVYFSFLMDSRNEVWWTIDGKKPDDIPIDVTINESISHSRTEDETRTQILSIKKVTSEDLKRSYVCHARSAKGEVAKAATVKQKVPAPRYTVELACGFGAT

[2] = target: T2, 小鼠IL1RAP (小家鼠 (Mus musculus), UniProt Q61730 21-367, limits assumed); assay: ELISA on coated IL1RAP orthologs
T2 construct: also called mIL1RAP
T2 sequence (looked up): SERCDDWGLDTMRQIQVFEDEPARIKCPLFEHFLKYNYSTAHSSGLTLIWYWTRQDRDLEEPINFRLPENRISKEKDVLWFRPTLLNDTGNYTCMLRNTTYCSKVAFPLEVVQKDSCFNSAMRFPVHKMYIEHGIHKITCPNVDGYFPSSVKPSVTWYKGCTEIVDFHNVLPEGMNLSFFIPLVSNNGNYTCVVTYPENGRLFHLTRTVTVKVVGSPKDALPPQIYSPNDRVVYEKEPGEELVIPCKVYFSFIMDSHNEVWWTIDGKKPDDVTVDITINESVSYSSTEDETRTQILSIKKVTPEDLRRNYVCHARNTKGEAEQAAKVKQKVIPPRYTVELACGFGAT

[3] = target: T3, 大鼠IL1RAP (褐家鼠 (Rattus norvegicus), UniProt Q63621 21-367, limits assumed); assay: ELISA on coated IL1RAP orthologs
T3 construct: also called rnIL1RAP
T3 sequence (looked up): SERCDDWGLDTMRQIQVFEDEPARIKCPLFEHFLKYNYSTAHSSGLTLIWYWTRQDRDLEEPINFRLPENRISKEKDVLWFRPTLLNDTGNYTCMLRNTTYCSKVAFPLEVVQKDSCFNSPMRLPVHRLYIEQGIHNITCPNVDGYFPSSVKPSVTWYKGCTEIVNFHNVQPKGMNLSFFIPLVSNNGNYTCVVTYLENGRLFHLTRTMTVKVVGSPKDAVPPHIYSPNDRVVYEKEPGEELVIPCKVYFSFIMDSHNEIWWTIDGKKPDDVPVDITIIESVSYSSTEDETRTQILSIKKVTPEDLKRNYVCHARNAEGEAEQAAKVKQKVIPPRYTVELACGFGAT

[4] = target: T4, 细胞膜上的人IL1RAP (人, UniProt Q9NPH3 21-570); assay: cell-based or functional assay
T4 sequence (looked up): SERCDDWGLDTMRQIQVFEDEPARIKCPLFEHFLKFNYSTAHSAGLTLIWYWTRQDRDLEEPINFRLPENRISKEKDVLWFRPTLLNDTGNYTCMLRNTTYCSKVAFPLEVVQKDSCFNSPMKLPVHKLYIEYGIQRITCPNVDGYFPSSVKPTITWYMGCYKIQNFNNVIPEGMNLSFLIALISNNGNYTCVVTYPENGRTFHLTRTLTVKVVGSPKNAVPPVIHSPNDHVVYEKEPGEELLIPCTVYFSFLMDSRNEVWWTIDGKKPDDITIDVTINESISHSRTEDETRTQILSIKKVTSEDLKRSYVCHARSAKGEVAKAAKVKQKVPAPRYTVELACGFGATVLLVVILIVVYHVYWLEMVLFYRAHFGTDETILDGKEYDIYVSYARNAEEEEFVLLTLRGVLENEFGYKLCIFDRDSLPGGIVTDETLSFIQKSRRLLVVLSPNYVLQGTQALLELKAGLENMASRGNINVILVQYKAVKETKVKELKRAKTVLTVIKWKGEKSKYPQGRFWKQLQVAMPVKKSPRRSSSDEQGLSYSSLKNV

[5] = target: T1, 重组mfIL1RAP aa21-367; assay: ELISA on coated IL1RAP orthologs

binding result [1]: binds
B1: h48D2 VH5:VL5 (antibody, human IgG1, kappa, L234A L235A)
heavy: not shown
light: APVLTQSPATLEASVGDRVTITCQASESISTALAWYQQKPGQPPKLLIYKASTLPSGVPSRFSGSGSGTEFTLTISDLESDDAATYYCQQGFSSGNVHNAFGGGTEVVVKRTVAAPSVFIFPPSDEQLKSGTASVVCLLNNFYPREAKVQWKVDNALQSGNSQESVTEQDSKDSTYSLSSTLTLSKADYEKHKVYACEVTHQGLSSPVTKSFNRGEC

binding result [2]: no binding
binding result [3]: no binding
B2: h48D2 VH5.GL:VL5.GL (antibody, human IgG1, kappa, L234A L235A)
heavy: not shown
light: B1 light with A1D, P2I, V3Q, L4M, A9S, E12S
notes: humanised and de-immunised variant

IC50, inhibition of IL-1α signalling, HEK-Blue assay (SEAP, OD 620nM) [4]: 1.92 nM
IC50, inhibition of IL-1β signalling, HEK-Blue assay (SEAP, OD 620nM) [4]: 0.7 nM
IC50, inhibition of IL-33 signalling, HEK-Blue assay (SEAP, OD 620nM) [4]: 2.92 nM
IC50, inhibition of IL-36α signalling, HEK-Blue assay (SEAP, OD 620nM) [4]: 0.0083 nM
IC50, inhibition of IL-36β signalling, HEK-Blue assay (SEAP, OD 620nM) [4]: 0.0081 nM
IC50, inhibition of IL-36γ signalling, HEK-Blue assay (SEAP, OD 620nM) [4]: 0.0111 nM
binding result [2]: no binding (tested: 4000ng/ml)
binding result [3]: no binding (tested: 4000ng/ml)
binding result [5]: binds
B3: 嵌合48D2 (antibody, V domains shown)
VH: QEQLEESGGGLVKPGGSLTLTCTVSGPSLSHFDITWVRQAPGSGLEWIGTISPGVSTYYASWAKSRSTITSNTNLNTVTLKMTSLTAADTATYFCARGGVGSSWKAFDLWGPGTLVTISS
VL: APVLTQTPASVEVAVGGTVTIKCQASESISTALAWYQQKPGQPPKLLIYKASTLPSGVSSRFKGSGSGTEFALTISDLECDDAATYYCQQGFSSGNVHNAFGGGTEVVVK
notes: chimeric rabbit/human IgG1; also called ch48D2; 48D2嵌合(ch)兔/人抗人IL1RAP

binding result [2]: no binding
binding result [3]: no binding
B4: h48D2 VH5.GL:VL4 (antibody, human IgG1, kappa, L234A L235A, V domains shown)
VH: QEQLEESGGGLVKPGGTLSLTCTVSGPSLSHFDITWIRQPPGKGLEWIGTISPGVSTYYASWAKSRVTISVDTSLNTVSLKLSSVTAADTATYFCARGGVGSSWKAFDLWGPGTLVTISS
VL: ELVMTQSPSSVSASVGDRVTITCQASESISTALAWYQQKPGKAPKLLIYKASTLPSGVPSRFSGSGSGTDFTLTINSLQPEDFATYYCQQGFSSGNVHNAFGGGTKVEIKR
notes: also called 48D2变体VH5.GL:VL4; 人源化和去免疫化48D2变体VH5.GL:VL4

binding result [1]: binds
B5: h48D2 VH5:VL4 (antibody, human IgG1, kappa, L234A L235A, V domains shown)
VH: B4 VH with P40A, K43S
VL: B4 VL
notes: also called 人源化48D2变体VH5:VL4
